# B1: AGB1 (purified, pull-down) (natural protein, Arabidopsis thaliana, UniProt P49177 1-377, looked up)
# chain: MSVSELKERHAVATETVNNLRDQLRQRRLQLLDTDVARYSAAQGRTRVSFGATDLVCCRTLQGHTGKVYSLDWTPERNRIVSASQDGRLIVWNALTSQKTHAIKLPCAWVMTCAFSPNGQSVACGGLDSVCSIFSLSSTADKDGTVPVSRMLTGHRGYVSCCQYVPNEDAHLITSSGDQTCILWDVTTGLKTSVFGGEFQSGHTADVLSVSISGSNPNWFISGSCDSTARLWDTRAASRAVRTFHGHEGDVNTVKFFPDGYRFGTGSDDGTCRLYDIRTGHQLQVYQPHGDGENGPVTSIAFSVSGRLLFAGYASNNTCYVWDTLLGEVVLDLGLQQDSHRNRISCLGLSADGSALCTGSWDSNLKIWAFGGHRRVI
# notes: AGB1, G protein beta subunit, Arabidopsis thaliana, At4G34460; source: E. coli, purified (glutathione agarose beads)
# B2: MKK5 (purified, pull-down) (natural protein, Arabidopsis thaliana, UniProt Q8RXG3 1-348, looked up)
# chain: MKPIQSPSGVASPMKNRLRKRPDLSLPLPHRDVALAVPLPLPPPSSSSSAPASSSAISTNISAAKSLSELERVNRIGSGAGGTVYKVIHTPTSRPFALKVIYGNHEDTVRRQICREIEILRSVDHPNVVKCHDMFDHNGEIQVLLEFMDQGSLEGAHIWQEQELADLSRQILSGLAYLHRRHIVHRDIKPSNLLINSAKNVKIADFGVSRILAQTMDPCNSSVGTIAYMSPERINTDLNHGRYDGYAGDVWSLGVSILEFYLGRFPFAVSRQGDWASLMCAICMSQPPEAPATASQEFRHFVSCCLQSDPPKRWSAQQLLQHPFILKATGGPNLRQMLPPPRPLPSAS
# notes: MKK5, MAP kinase kinase 5, Arabidopsis thaliana, At3G21220; source: E. coli, purified (glutathione agarose beads)
# B3: MKK4 (purified, pull-down) (natural protein, Arabidopsis thaliana, UniProt O80397 1-366, looked up)
# chain: MRPIQSPPGVSVPVKSRPRRRPDLTLPLPQRDVSLAVPLPLPPTSGGSGGSSGSAPSSGGSASSTNTNSSIEAKNYSDLVRGNRIGSGAGGTVYKVIHRPSSRLYALKVIYGNHEETVRRQICREIEILRDVNHPNVVKCHEMFDQNGEIQVLLEFMDKGSLEGAHVWKEQQLADLSRQILSGLAYLHSRHIVHRDIKPSNLLINSAKNVKIADFGVSRILAQTMDPCNSSVGTIAYMSPERINTDLNQGKYDGYAGDIWSLGVSILEFYLGRFPFPVSRQGDWASLMCAICMSQPPEAPATASPEFRHFISCCLQREPGKRRSAMQLLQHPFILRASPSQNRSPQNLHQLLPPPRPLSSSSSPTT
# notes: MKK4, MAP kinase kinase 4, Arabidopsis thaliana, At1G51660; source: E. coli, purified (glutathione agarose beads)
# Tests used:
# Assay in all cases: pull-down; purified fusion proteins from E. coli incubated with glutathione agarose beads, 25 mM Tris-HCl pH 7.5, 100 mM NaCl, 1 mM DTT, 1 hr; seven washes with 0.1% Triton X-100; eluted with 15 mM GSH; immunoblot
# Conditions in all cases: both partners purified
# [1] = biological target: T1, MPK6 (purified, pull-down) (Arabidopsis thaliana, UniProt Q39026 1-395)
# T1 construct: MPK6, MAP kinase 6, Arabidopsis thaliana, At2G43790; fusion protein; source: E. coli, purified (glutathione agarose beads)
# T1 sequence (Q39026 whole entry, the tested form may be a part): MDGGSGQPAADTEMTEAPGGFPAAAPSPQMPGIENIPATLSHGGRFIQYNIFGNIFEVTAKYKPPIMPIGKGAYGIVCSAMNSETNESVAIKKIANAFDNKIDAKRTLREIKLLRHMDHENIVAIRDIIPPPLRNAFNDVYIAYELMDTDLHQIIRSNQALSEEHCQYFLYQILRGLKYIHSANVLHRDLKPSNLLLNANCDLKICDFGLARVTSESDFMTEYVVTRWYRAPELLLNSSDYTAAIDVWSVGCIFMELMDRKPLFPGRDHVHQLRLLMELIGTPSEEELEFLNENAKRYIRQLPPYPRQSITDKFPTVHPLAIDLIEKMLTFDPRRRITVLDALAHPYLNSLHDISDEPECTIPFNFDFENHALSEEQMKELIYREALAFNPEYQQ
# [2] = biological target: B1
# [3] = biological target: B3
# [4] = biological target: B2
binding result [1],binding result [2],binding result [3],binding result [4],Binder
binds,,,,B1
,binds,,,B2
,binds,,,B3
binds,,,,"GPA1 (purified, pull-down) (natural protein, Arabidopsis thaliana, UniProt P18064 1-383, looked up, GPA1, G protein alpha subunit, Arabidopsis thaliana, At2G26300; fusion protein; also called WtGPA1; source: E. coli, purified (glutathione agarose beads)) MGLLCSRSRHHTEDTDENTQAAEIERRIEQEAKAEKHIRKLLLLGAGESGKSTIFKQIKLLFQTGFDEGELKSYVPVIHANVYQTIKLLHDGTKEFAQNETDSAKYMLSSESIAIGEKLSEIGGRLDYPRLTKDIAEGIETLWKDPAIQETCARGNELQVPDCTKYLMENLKRLSDINYIPTKEDVLYARVRTTGVVEIQFSPVGENKKSGEVYRLFDVGGQRNERRKWIHLFEGVTAVIFCAAISEYDQTLFEDEQKNRMMETKELFDWVLKQPCFEKTSFMLFLNKFDIFEKKVLDVPLNVCEWFRDYQPVSSGKQEIEHAYEFVKKKFEELYYQNTAPDRVDRVFKIYRTTALDQKLVKKTFKLVDETLRRRNLLEAGLL"
binds,,,,"GPA1^Q222L (purified, pull-down) (natural protein, Arabidopsis thaliana, UniProt P18064 1-383, looked up, GPA1, G protein alpha subunit, Arabidopsis thaliana, At2G26300, with Q222L; fusion protein; source: E. coli, purified (glutathione agarose beads)) MGLLCSRSRHHTEDTDENTQAAEIERRIEQEAKAEKHIRKLLLLGAGESGKSTIFKQIKLLFQTGFDEGELKSYVPVIHANVYQTIKLLHDGTKEFAQNETDSAKYMLSSESIAIGEKLSEIGGRLDYPRLTKDIAEGIETLWKDPAIQETCARGNELQVPDCTKYLMENLKRLSDINYIPTKEDVLYARVRTTGVVEIQFSPVGENKKSGEVYRLFDVGGLRNERRKWIHLFEGVTAVIFCAAISEYDQTLFEDEQKNRMMETKELFDWVLKQPCFEKTSFMLFLNKFDIFEKKVLDVPLNVCEWFRDYQPVSSGKQEIEHAYEFVKKKFEELYYQNTAPDRVDRVFKIYRTTALDQKLVKKTFKLVDETLRRRNLLEAGLL"
binds,,binds,binds,"AGG2 (purified, pull-down) (natural protein, Arabidopsis thaliana, UniProt Q93V47 1-100, looked up, AGG2, G protein gamma subunit 2, Arabidopsis thaliana, At3G22942; fusion protein; source: E. coli, purified (glutathione agarose beads)) MEAGSSNSSGQLSGRVVDTRGKHRIQAELKRLEQEARFLEEELEQLEKMDNASASCKEFLDSVDSKPDPLLPETTGPVNATWDQWFEGPKEAKRCGCSIL"
binds,,binds,binds,"AGG1 (purified, pull-down) (natural protein, Arabidopsis thaliana, UniProt Q9FDX9 1-98, looked up, AGG1, G protein gamma subunit 1, Arabidopsis thaliana, At3G63420; fusion protein; source: E. coli, purified (glutathione agarose beads)) MREETVVYEQEESVSHGGGKHRILAELARVEQEVAFLEKELKEVENTDIVSTVCEELLSVIEKGPDPLLPLTNGPLNLGWDRWFEGPNGGEGCRCLIL"

# From publication PMC5562876, “The integration of Gβ and MAPK signaling cascade in zygote development” (Scientific Reports, 2017)
